Data on eight molecules can be found in article PMC9293652 (The Journal of Biological Chemistry, 2022).

For experiment [1], the target named is WWOX WW1-WW2 tandem domain (amino acids 16-91) (human). As to the kind of experiment: NMR titration.
Experiment [2] has the same target. Put plainly: ITC.
Experiment [3] has as its target T1, WWOX WW1-WW2 tandem domain (amino acids 16-91) (human).
T1 chain: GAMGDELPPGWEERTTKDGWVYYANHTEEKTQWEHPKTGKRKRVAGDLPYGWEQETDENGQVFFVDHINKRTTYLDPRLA
Put plainly: NMR titration.

The target of experiment [4] is T1, WWOX WW1-WW2 tandem domain (amino acids …). Put plainly: NMR titration.
Experiment [5] shares this target. Put plainly: ITC.
Experiment [6] deals with T2, WWOX WW1 (amino acids 16-50) (human).
T2 chain: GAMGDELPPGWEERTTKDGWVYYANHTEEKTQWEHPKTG
As to the kind of experiment: ITC.

The target of experiment [7] is T3, WWOX WW2 (amino acids 57-91) (human).
T3 chain: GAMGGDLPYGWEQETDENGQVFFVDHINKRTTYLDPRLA
As to the kind of experiment: ITC.

Like-named read-outs stand apart in the source and are kept apart here. Bounds are passed on as bounds.

As to ErbB4 peptide PY2 (1048-1060), the KD WW1 (based on W44) in experiment [1] worked out at 15 µM. This molecule showed a Kd in experiment [2] of over 100 µM.

Consider ErbB4 peptide PY3 (1293-1305), for which, in experiment [1], the KD WW1 (based on W44) stood at 10 µM and the KD WW2 (based on V73) was over 1000 µM. In experiment [2], this molecule had a Kd of 30 µM and a dH of -12.1 kcal/mol.

In turn, ErbB4 peptide PY1 (1027-1039) registered a KD WW1 (based on W44) in experiment [1] of 21 µM. The same molecule showed a dissociation constant Kd in experiment [2] of over 100 µM.

As for AFNIPPPIYTSRARIDSNRSEIGHSPPPAYTPMS [ErbB4 double-motif peptide PY1PY2 (1027-1060, natural linker)], the “KD WW2 (based on V73)” value in experiment [3] is about 1000 µM. Further, the “KD WW1 (based on W44)” value in experiment [4] came out at 10 ± 2 µM. Besides, in experiment [5], binding was characterised by a dissociation constant (Kd) of 14 µM and the dH is -39 kcal/mol.

For the molecule AFNIPPPIYTSRAGGGGGHSPPPAYTPMS [ErbB4 double-motif peptide PY1PY2S (natural linker replaced by polyglycine)], the “KD WW2 (based on V73)” value in experiment [3] is 70 ± 20 µM. In addition, the “KD WW1 (based on W44)” value in experiment [4] was 2 ± 1 µM. Further, in experiment [5], binding was characterised by a dissociation constant (Kd) of 21 µM and the dH is -29 kcal/mol.

For the molecule GTVLPPPPYRHRNGGGGGTVLPPPPYRHRN [ErbB4 double-motif peptide PY3PY3 (polyglycine linker)], the “KD WW2 (based on V73)” value in experiment [3] amounted to 40 ± 20 µM. For the same molecule, the “KD WW1 (based on W44)” value in experiment [4] is 0.6 ± 0.3 µM. In experiment [5], this molecule came in with a Kd of 3.1 µM and a dH of -24.9 kcal/mol. Besides, in experiment [6], the Kd was 50 µM and the dH was -39 kcal/mol.

As to GTVLPPPPYRHRN [ErbB4 peptide PY3 (1293-1305)], the Kd in experiment [7] is over 200 µM. In experiment [6], this molecule had a Kd of 78 µM and a dH of -23 kcal/mol.

Consider AFNIPPPIYTSRAGGGGGTVLPPPPYRHRN [ErbB4 double-motif peptide PY1PY3 (polyglycine linker)], for which the “KD WW2 (based on V73)” value in experiment [3] came out at 80 ± 20 µM. The “KD WW1 (based on W44)” value in experiment [4] turned out to be 6 ± 1 µM. In experiment [5], the affinity, expressed as Kd, was 8 µM and the dH was -22 kcal/mol.
